Laboratory results from US20260209359A1 (NEXTERA, published 2026).

Key:
[1] = molecular target: T1, HLA-A*02:01/MAGE-A4^230-239, soluble recombinant biotinylated pHLA (human, UniProt P04439 25-299 at identity 0.94); P61769 21-119, biotinylated); assay: ELISA, soluble biotinylated pHLA on neutravidin, scDb, protL-HRP
T1 construct: Empty biotinylated HLA-A2 monomers (Tetramer Shop) loaded with synthetic peptide; also called MAGE-A4 pMHC; MAGE-A4-pHLA
Experimental: ELISA plates were coated with 5 μg/mL NeutrAvidin in PBS and incubated 16 h/4° C. (step (a)) and blocked with 5% skim milk powder in PBST for 1 h/room temperature (RT) (step (c)). […] Bound phage particles were detected with an anti-Fd antibody (anti-M13-HRP (Amersham Biosciences)), whereas bound IgG1 and scDb was detected with HRP conjugated protein L (Genscript) (step (i)). […] Plates were developed with TMB solution and read at 450 nm using a microplate reader (step (k)). Between each layer, the plates were washed 3× with PBST (steps (b), (d), (f), (h), and (j)).

[2] = molecular target: T2, HLA-A*02:01/MAGE-A4^230-239 displayed on cells (MAGE-A4^230-239 pulsed T2 cells; NCI-H1703, A375, THP1, … (human, UniProt P04439 25-365 at identity 0.94); P61769 21-119); assay: cell-based or functional assay
[3] = molecular target: T2, HLA-A*02:01/MAGE-A4^230-239 displayed …; assay: cell-based or functional assay; remark: listed apart in the source

B1: AMC1 scDb (bispecific antibody)
chain: DIRLTQSPSSLSASVGDRVTMTCRASQTVATYVNWYQQKPGRAPKLLMYVTSIRQSEVPSRFSGDGFGTDFTLTINPLQPDDFATYYCQQAYSTPVTFGQGTKLEIKGGGGSEVQLQQSGPELVKPGASMKISCKASGYSFTGYTMNWVKQSHGKNLEWMGLINPYKGVSTYNQKFKDKATLTVDKSSSTAYMELLSLTSEDSAVYYCARSGYYGDSDWYFDVWGAGTTVTVSSGGGGSGGGGSGGGGSDIQMTQTTSSLSASLGDRVTISCRASQDIRNYLNWYQQKPDGTVKLLIYYTSRLHSGVPSKFSGSGSGTDYSLTISNLEQEDIATYFCQQGNTLPWTFAGGTKLEIKGGGGSQVQLVQSGAEVKKPGASVKVSCKVSGPKLYEVSMHWVRQAPGKGLEWMGGFDPEDGETIYAQKFQGRVTMTEDTSTDTAYMELSSLRSEDTAVYYCATDQGASWGFYWGQGTLVTVSS
notes: as m68
EC50 [1]: 0.45 nM | IFNγ EC50 vs. target positive cells (pM) [2]: 3.6 pM

B2: AMC6 scDb (bispecific antibody)
chain: DIRLTQSPSSLSASVGDRVTMTCRASQTVATYVNWYQQKPGRAPKLLMYVTSIRQSEVPSRFSGDGFGTDFTLTINPLQPDDFATYYCQQAYSTPVTFGQGTKLEIKGGGGSEVQLQQSGPELVKPGASMKISCKASGYSFTGYTMNWVKQSHGKNLEWMGLINPYKGVSTYNQKFKDKATLTVDKSSSTAYMELLSLTSEDSAVYYCARSGYYGDSDWYFDVWGAGTTVTVSSGGGGSGGGGSGGGGSDIQMTQTTSSLSASLGDRVTISCRASQDIRNYLNWYQQKPDGTVKLLIYYTSRLHSGVPSKFSGSGSGTDYSLTISNLEQEDIATYFCQQGNTLPWTFAGGTKLEIKGGGGSQVQLVQSGAEVKKPGASVKVSCKVSGPKLYEVSMHWVRQAPGKGLEWMGGFDPEDGETIYAQKFQGRVTMTEDTSTDTAYMELSSLRSEDTAVYYCATDQGSSWGFYWGQGTLVTVSS
notes: as m68
EC50 [1]: 0.61 nM | IFNγ EC50 vs. target positive cells (pM) [2]: 8.6 pM

B3: AM1 scDb (bispecific antibody)
chain: DIRVTQSPSSLSASVGDRVTITCRADVHIYWYLNWYQQKPGKAPKLLIYAASSLQSGVPSRFSGSGSGTDFTLTISSLQPEDFATYYCQQSYSTPYTFGQGTKLEIKGGGGSEVQLQQSGPELVKPGASMKISCKASGYSFTGYTMNWVKQSHGKNLEWMGLINPYKGVSTYNQKFKDKATLTVDKSSSTAYMELLSLTSEDSAVYYCARSGYYGDSDWYFDVWGAGTTVTVSSGGGGSGGGGSGGGGSDIQMTQTTSSLSASLGDRVTISCRASQDIRNYLNWYQQKPDGTVKLLIYYTSRLHSGVPSKFSGSGSGTDYSLTISNLEQEDIATYFCQQGNTLPWTFAGGTKLEIKGGGGSQVQLVQSGAEVKKPGASVKVSCKVSGYTLTELSMHWVRQAPGKGLEWMGGFDPEDGETIYAQKFQGRVTMTEDTSTDTAYMELSSLRSEDTAVYYCATDQGSSWGFYWGQGTLVTVSS
notes: VLA-VHB-VLB-VHA, anti-CD3 UCHT1
EC50 [1]: 0.36 nM | EC50 vs. NCI-H1703 (pM), T-cell specific killing [3]: 6.4 pM | IFNγ EC50 vs. target positive cells (pM) [2]: 11.8 pM

B4: AMC7 scDb (bispecific antibody)
chain: DIRVTQSPSSLSASVGDRVTITCRASQNIMWYLNWYQQKPGKAPKLLIYAASSLQSGVPSRFSGSGSGTDFTLTISSLQPEDFATYYCQQSYSTPYTFGQGTKLEIKGGGGSEVQLQQSGPELVKPGASMKISCKASGYSFTGYTMNWVKQSHGKNLEWMGLINPYKGVSTYNQKFKDKATLTVDKSSSTAYMELLSLTSEDSAVYYCARSGYYGDSDWYFDVWGAGTTVTVSSGGGGSGGGGSGGGGSDIQMTQTTSSLSASLGDRVTISCRASQDIRNYLNWYQQKPDGTVKLLIYYTSRLHSGVPSKFSGSGSGTDYSLTISNLEQEDIATYFCQQGNTLPWTFAGGTKLEIKGGGGSQVQLVQSGAEVKKPGASVKVSCKVSGPKLYEVSMHWVRQAPGKGLEWMGGFDPEDGETIYAQKFQGRVTMTEDTSTDTAYMELSSLRSEDTAVYYCATDQGSSWGFYWGQGTLVTVSS
notes: as m68
EC50 [1]: 0.41 nM | IFNγ EC50 vs. target positive cells (pM) [2]: 8.5 pM

B5: AMC4 scDb (bispecific antibody)
chain: DIRVTQSPSSLSASVGDRVTITCRADHHIFWYLNWYQQKPGKAPKLLIYAASSLQSGVPSRFSGSGSGTDFTLTISSLQPEDFATYYCQQSYSTPYTFGQGTKLEIKGGGGSEVQLQQSGPELVKPGASMKISCKASGYSFTGYTMNWVKQSHGKNLEWMGLINPYKGVSTYNQKFKDKATLTVDKSSSTAYMELLSLTSEDSAVYYCARSGYYGDSDWYFDVWGAGTTVTVSSGGGGSGGGGSGGGGSDIQMTQTTSSLSASLGDRVTISCRASQDIRNYLNWYQQKPDGTVKLLIYYTSRLHSGVPSKFSGSGSGTDYSLTISNLEQEDIATYFCQQGNTLPWTFAGGTKLEIKGGGGSQVQLVQSGAEVKKPGASVKVSCKVSGPKLYEVSMHWVRQAPGKGLEWMGGFDPEDGETIYAQKFQGRVTMTEDTSTDTAYMELSSLRSEDTAVYYCATDQGASWGFYWGQGTLVTVSS
notes: as m68
EC50 [1]: 0.36 nM | IFNγ EC50 vs. target positive cells (pM) [2]: 9.2 pM

B6: AMC12 scDb (bispecific antibody)
chain: DIRVTQSPSSLSASVGDRVTITCRASQNIMWYLNWYQQKPGKAPKLLIYAASSLQSGVPSRFSGSGSGTDFTLTISSLQPEDFATYYCQQAYRIPYTFGQGTKLEIKGGGGSEVQLQQSGPELVKPGASMKISCKASGYSFTGYTMNWVKQSHGKNLEWMGLINPYKGVSTYNQKFKDKATLTVDKSSSTAYMELLSLTSEDSAVYYCARSGYYGDSDWYFDVWGAGTTVTVSSGGGGSGGGGSGGGGSDIQMTQTTSSLSASLGDRVTISCRASQDIRNYLNWYQQKPDGTVKLLIYYTSRLHSGVPSKFSGSGSGTDYSLTISNLEQEDIATYFCQQGNTLPWTFAGGTKLEIKGGGGSQVQLVQSGAEVKKPGASVKVSCKVSGPKLYEVSMHWVRQAPGKGLEWMGGFDPEDGETIYAQKFQGRVTMTEDTSTDTAYMELSSLRSEDTAVYYCATDQGASWGFYWGQGTLVTVSS
notes: as m68
EC50 [1]: 0.25 nM | IFNγ EC50 vs. target positive cells (pM) [2]: 6.9 pM

B7: AMC5 scDb (bispecific antibody)
chain: DIRVTQSPSSLSASVGDRVTITCRADIDIRWYLNWYQQKPGKAPKLLIYAASSLQSGVPSRFSGSGSGTDFTLTISSLQPEDFATYYCQQSYSTPYTFGQGTKLEIKGGGGSEVQLQQSGPELVKPGASMKISCKASGYSFTGYTMNWVKQSHGKNLEWMGLINPYKGVSTYNQKFKDKATLTVDKSSSTAYMELLSLTSEDSAVYYCARSGYYGDSDWYFDVWGAGTTVTVSSGGGGSGGGGSGGGGSDIQMTQTTSSLSASLGDRVTISCRASQDIRNYLNWYQQKPDGTVKLLIYYTSRLHSGVPSKFSGSGSGTDYSLTISNLEQEDIATYFCQQGNTLPWTFAGGTKLEIKGGGGSQVQLVQSGAEVKKPGASVKVSCKVSGPKLYEVSMHWVRQAPGKGLEWMGGFDPEDGETIYAQKFQGRVTMTEDTSTDTAYMELSSLRSEDTAVYYCATDQGASWGFYWGQGTLVTVSS
notes: as m68
EC50 [1]: 0.32 nM | IFNγ EC50 vs. target positive cells (pM) [2]: 8 pM

B8: AMC14 scDb (bispecific antibody)
chain: DIRVTQSPSSLSASVGDRVTITCRASQNIMWYLNWYQQKPGKAPKLLIYAASSLQSGVPSRFSGSGSGTDFTLTISSLQPEDFATYYCQQAYRIPYTFGQGTKLEIKGGGGSEVQLQQSGPELVKPGASMKISCKASGYSFTGYTMNWVKQSHGKNLEWMGLINPYKGVSTYNQKFKDKATLTVDKSSSTAYMELLSLTSEDSAVYYCARSGYYGDSDWYFDVWGAGTTVTVSSGGGGSGGGGSGGGGSDIQMTQTTSSLSASLGDRVTISCRASQDIRNYLNWYQQKPDGTVKLLIYYTSRLHSGVPSKFSGSGSGTDYSLTISNLEQEDIATYFCQQGNTLPWTFAGGTKLEIKGGGGSQVQLVQSGAEVKKPGASVKVSCKVSGPKLYEVSMHWVRQAPGKGLEWMGGFDPEDGETIYAQKFQGRVTMTEDTSTDTAYMELSSLRSEDTAVYYCATDQGSSWGFYWGQGTLVTVSS
notes: as m68
EC50 [1]: 0.47 nM | IFNγ EC50 vs. target positive cells (pM) [2]: 8.2 pM

B9: AMC10 scDb (bispecific antibody)
chain: DIQLTQSPSSLSASVGDRVTITCRASQNIMWYLNWYQQKPGKAPKLLIYAASGLQSGVPSRFSGSGSGTDFTLTISSLQPEDFATYYCQQSYSTPFTFGPGTKVDIKGGGGSEVQLQQSGPELVKPGASMKISCKASGYSFTGYTMNWVKQSHGKNLEWMGLINPYKGVSTYNQKFKDKATLTVDKSSSTAYMELLSLTSEDSAVYYCARSGYYGDSDWYFDVWGAGTTVTVSSGGGGSGGGGSGGGGSDIQMTQTTSSLSASLGDRVTISCRASQDIRNYLNWYQQKPDGTVKLLIYYTSRLHSGVPSKFSGSGSGTDYSLTISNLEQEDIATYFCQQGNTLPWTFAGGTKLEIKGGGGSQVQLVQSGAEVKKPGASVKVSCKVSGYTLTELSMHWVRQAPGKGLEWMGGFDPEDGETIYAQKFQGRVTMTEDTSTDTAYMELSSLRSEDTAVYYCATDQGSSWGFYWGQGTLVTVSS
notes: as m68
EC50 [1]: 0.46 nM | IFNγ EC50 vs. target positive cells (pM) [2]: 1.7 pM

B10: AMC3 scDb (bispecific antibody)
chain: DIRVTQSPSSLSASVGDRVTITCRASQNIMWYLNWYQQKPGKAPKLLIYAASSLQSGVPSRFSGSGSGTDFTLTISSLQPEDFATYYCQQSYSTPYTFGQGTKLEIKGGGGSEVQLQQSGPELVKPGASMKISCKASGYSFTGYTMNWVKQSHGKNLEWMGLINPYKGVSTYNQKFKDKATLTVDKSSSTAYMELLSLTSEDSAVYYCARSGYYGDSDWYFDVWGAGTTVTVSSGGGGSGGGGSGGGGSDIQMTQTTSSLSASLGDRVTISCRASQDIRNYLNWYQQKPDGTVKLLIYYTSRLHSGVPSKFSGSGSGTDYSLTISNLEQEDIATYFCQQGNTLPWTFAGGTKLEIKGGGGSQVQLVQSGAEVKKPGASVKVSCKVSGPKLYEVSMHWVRQAPGKGLEWMGGFDPEDGETIYAQKFQGRVTMTEDTSTDTAYMELSSLRSEDTAVYYCATDQGASWGFYWGQGTLVTVSS
notes: as m68
EC50 [1]: 0.35 nM | IFNγ EC50 vs. target positive cells (pM) [2]: 7.3 pM
